# Data: patent publication US20200199213A1 (Eli Lilly, published 2020)
# Changes are numbered by the printed parent chain. Numbers in names are those of the source.
# T1: human ANGPTL8 (human, UniProt Q6UXH0 22-198)
# T1 construct: Biotinylated in the ELISA assays; also called hANGPTL8; free ANGPTL8
# T1 sequence: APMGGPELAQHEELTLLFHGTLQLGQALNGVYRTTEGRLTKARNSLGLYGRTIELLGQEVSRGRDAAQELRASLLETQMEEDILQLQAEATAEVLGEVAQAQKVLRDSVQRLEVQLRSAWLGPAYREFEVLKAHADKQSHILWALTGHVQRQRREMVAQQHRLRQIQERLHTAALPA
# T2: human ANGPTL3 (human, UniProt Q9Y5C1 17-460)
# T2 construct: Biotinylated in the ELISA assays; also called hANGPTL3; free ANGPTL3
# T2 sequence: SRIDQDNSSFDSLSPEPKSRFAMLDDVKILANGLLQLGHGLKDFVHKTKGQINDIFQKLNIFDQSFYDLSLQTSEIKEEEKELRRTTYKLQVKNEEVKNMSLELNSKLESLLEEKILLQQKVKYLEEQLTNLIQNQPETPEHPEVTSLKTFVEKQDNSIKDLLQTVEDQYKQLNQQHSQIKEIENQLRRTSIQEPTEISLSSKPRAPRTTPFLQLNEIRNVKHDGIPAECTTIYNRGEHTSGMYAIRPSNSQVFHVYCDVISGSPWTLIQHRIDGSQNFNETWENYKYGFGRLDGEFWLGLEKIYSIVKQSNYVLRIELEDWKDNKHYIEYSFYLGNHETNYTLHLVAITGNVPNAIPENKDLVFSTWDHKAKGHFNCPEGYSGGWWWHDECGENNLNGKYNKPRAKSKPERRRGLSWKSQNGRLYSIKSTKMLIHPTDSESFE
# T3: human ANGPTL3/8 complex (human, UniProt Q9Y5C1 17-460; Q6UXH0 22-198, limits assumed)
# T3 construct: also called hANGPTL3/8 complex; ANGTPL3/8 complex
# T3 sequence 1: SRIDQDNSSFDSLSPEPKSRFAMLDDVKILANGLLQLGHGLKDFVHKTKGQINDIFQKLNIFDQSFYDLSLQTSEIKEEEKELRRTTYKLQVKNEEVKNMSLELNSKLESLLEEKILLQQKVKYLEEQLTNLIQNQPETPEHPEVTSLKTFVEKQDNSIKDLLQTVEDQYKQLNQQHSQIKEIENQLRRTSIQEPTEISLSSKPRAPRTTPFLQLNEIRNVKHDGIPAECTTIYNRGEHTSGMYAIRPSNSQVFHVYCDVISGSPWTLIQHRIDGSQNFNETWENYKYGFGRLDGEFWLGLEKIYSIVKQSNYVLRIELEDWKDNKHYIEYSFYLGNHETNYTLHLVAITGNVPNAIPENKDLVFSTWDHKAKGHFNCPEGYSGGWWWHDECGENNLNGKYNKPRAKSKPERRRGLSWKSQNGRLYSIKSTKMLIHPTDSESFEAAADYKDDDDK
# T3 sequence 2: T1 sequence
# B1: anti-ANGPTL3/8 complex Ab having a LC of SEQ ID NO:5 and a HC of SEQ ID NO:6 (antibody, human IgG4 S228P, kappa, F234A L235A, V domains shown)
# VH: QVTLKESGPTLVKPTQTLTLTCTFSGFSLSISGVGVGWIRQPPGKALEWLALIYRNDDKRYSPSLKSRLTITKDTSKNQVVLTLTNMDPVDTATYYCARTYSSGWYGNWFDPWGQGTLVTVSS
# VL: DIVMTQTPLSLPVTPGEPASISCRSSQSLLDSDDGNTYLDWYLQKPGQSPQLLIYMLSYRASGVPDRFSGSGSGTDFTLKISRVEAEDVGIYYCMQRIEFPLTFGGGTKVEIKR
# notes: In the ELISA assays tested as IgG from CHO supernatants; also called the Ab
# B2: Ab with LC variant having a E99Q mutation (SEQ ID NO:25) and a HC of SEQ ID NO:6 (antibody, human IgG4 S228P, kappa, F234A L235A, V domains shown)
# VH: B1 VH
# VL: B1 VL with E99Q
# notes: also called E99Q Variant Ab; E99Q Ab
# B3: Ab with LC variant having a D31S mutation (SEQ ID NO:21) and a HC of SEQ ID NO:6 (antibody, human IgG4 S228P, kappa, F234A L235A, V domains shown)
# VH: B1 VH
# VL: B1 VL with D31S
# notes: also called D31S Variant Ab; D31S Ab
# B4: Ab with LC variant having a D33A mutation (SEQ ID NO:22) and a HC of SEQ ID NO:6 (antibody, human IgG4 S228P, kappa, F234A L235A, V domains shown)
# VH: B1 VH
# VL: B1 VL with D33A
# notes: also called D33A Variant Ab; D33A Ab
# Target: T1, human ANGPTL8
# Experiment: ELISA; Ab captured by anti-human Fc; biotinylated antigen at 0.412 nM
# Description: (§1) ELISA Assay: Ab binding selectivity to either the ANGPTL3/8 complex, free ANGPTL3 or free ANGPTL8 is verified using standard ELISA assays. […] Ab from CHO supernatants after expression in CHO cells is then captured to the assay plate and results is an Ab concentration of 2 μg/ml. Biotinylated antigen (ANGPTL3, ANGPTL8 or ANGPTL3/8 complex) is added at varying concentrations by serial dilution to allow for Ab/antigen binding. Ab/antigen complexes are detected after the addition of alkaline phosphatase-conjugated neutravidin, and alkaline phosphatase substrate, and subsequent measurement of the optical density at 560 nm.
row,OD at 560 nm,Binder
1,0.046 OD 560 nm,B1
2,0.062 OD 560 nm,B2
3,0.062 OD 560 nm,B3
4,0.047 OD 560 nm,B4

# Target: T2, human ANGPTL3
# Experiment: as above
# Description: as §1
row,OD at 560 nm,Binder
1,0.043 OD 560 nm,B1
2,0.058 OD 560 nm,B2
3,0.058 OD 560 nm,B3
4,0.056 OD 560 nm,B4

# Target: T3, human ANGPTL3/8 complex
# Experiment: as above
# Description: as §1
row,OD at 560 nm,Binder
1,0.231 OD 560 nm,B1
2,0.234 OD 560 nm,B2
3,0.234 OD 560 nm,B3
4,0.196 OD 560 nm,B4

# Target: T1, human ANGPTL8
# Experiment: ELISA; Ab captured by anti-human Fc; biotinylated antigen at 11.1 nM
# Description: as §1
row,OD at 560 nm,Binder
1,0.045 OD 560 nm,B1
2,0.062 OD 560 nm,B2
3,0.062 OD 560 nm,B3
4,0.048 OD 560 nm,B4

# Target: T2, human ANGPTL3
# Experiment: as above
# Description: as §1
row,OD at 560 nm,Binder
1,0.046 OD 560 nm,B1
2,0.062 OD 560 nm,B2
3,0.062 OD 560 nm,B3
4,0.06 OD 560 nm,B4

# Target: T3, human ANGPTL3/8 complex
# Experiment: as above
# Description: as §1
row,OD at 560 nm,Binder
1,1.71 OD 560 nm,B1
2,1.74 OD 560 nm,B2
3,1.74 OD 560 nm,B3
4,1.64 OD 560 nm,B4

# Target: T1, human ANGPTL8
# Experiment: single point ELISA; IgG captured by anti-human Fc; biotinylated antigen at 25 nM
# Description: Single Point ELISA (SPE) Assay: Ab binding selectivity to either the ANGPTL3/8 complex, free ANGPTL3 or free ANGPTL8 is initially verified using standard ELISA assays in a single point format. […] IgG secreted into supernatants after expression in CHO cells are then captured to the assay plate. Biotinylated antigen is added at a concentration of 25 nM to allow for Ab/antigen binding. Ab/antigen complexes are detected after adding alkaline phosphatase-conjugated neutravidin and alkaline phosphatase substrate, and subsequent measurement of the optical density at 560 nm. Positive binding is determined by a signal greater than 3 fold over the non-binding background signal.
row,OD at 560 nm,Binder
1,0.087 OD 560 nm,B1
2,0.1 OD 560 nm,B2
3,0.072 OD 560 nm,B3
4,0.118 OD 560 nm,B4

# Target: T1, human ANGPTL8
# Experiment: ELISA; Ab captured by anti-human Fc; biotinylated antigen at 0.137 nM
# Description: as §1
row,OD at 560 nm,Binder
1,0.047 OD 560 nm,B1
2,0.08 OD 560 nm,B2
3,0.08 OD 560 nm,B3
4,0.053 OD 560 nm,B4

# Target: T2, human ANGPTL3
# Experiment: as above
# Description: as §1
row,OD at 560 nm,Binder
1,0.048 OD 560 nm,B1
2,0.057 OD 560 nm,B2
3,0.057 OD 560 nm,B3
4,0.062 OD 560 nm,B4

# Target: T3, human ANGPTL3/8 complex
# Experiment: as above
# Description: as §1
row,OD at 560 nm,Binder
1,0.11 OD 560 nm,B1
2,0.137 OD 560 nm,B2
3,0.137 OD 560 nm,B3
4,0.101 OD 560 nm,B4

# Target: T1, human ANGPTL8
# Experiment: ELISA; Ab captured by anti-human Fc; biotinylated antigen at 100 nM
# Description: as §1
row,OD at 560 nm,Binder
1,0.072 OD 560 nm,B1
2,0.098 OD 560 nm,B2
3,0.098 OD 560 nm,B3
4,0.078 OD 560 nm,B4

# Target: T2, human ANGPTL3
# Experiment: as above
# Description: as §1
row,OD at 560 nm,Binder
1,0.081 OD 560 nm,B1
2,0.084 OD 560 nm,B2
3,0.084 OD 560 nm,B3
4,0.082 OD 560 nm,B4

# Target: T3, human ANGPTL3/8 complex
# Experiment: as above
# Description: as §1
row,OD at 560 nm,Binder
1,2.71 OD 560 nm,B1
2,2.47 OD 560 nm,B2
3,2.47 OD 560 nm,B3
4,2.39 OD 560 nm,B4
